Tests used:
[1] = biological target: TdT (murine terminal deoxynucleotidyl transferase, single cysteine at position 182, conjugated to dNTP via amino acid ester linker) (Mus musculus) (UniProt P09838); settings: hydroxymethyl scar on 3'-terminal T base; dTTP ester-linker conjugate; same yield as natural unscarred primer
[2] = biological target: TdT (murine terminal deoxynucleotidyl transferase, single cysteine at position 182, conjugated to dNTP via amino acid ester linker) (Mus musculus) (UniProt P09838); experiment: EMSA; settings: Linker 1 or 2 dTTP conjugate, 60 s; covalent primer-extension complex on SDS-PAGE gel shift

Chain of TdT (murine terminal deoxynucleotidyl transferase, single cysteine at position 182, conjugated to dNTP via amino acid ester linker) (Mus musculus) (P09838 other isoform, or with tags, fused parts or gaps): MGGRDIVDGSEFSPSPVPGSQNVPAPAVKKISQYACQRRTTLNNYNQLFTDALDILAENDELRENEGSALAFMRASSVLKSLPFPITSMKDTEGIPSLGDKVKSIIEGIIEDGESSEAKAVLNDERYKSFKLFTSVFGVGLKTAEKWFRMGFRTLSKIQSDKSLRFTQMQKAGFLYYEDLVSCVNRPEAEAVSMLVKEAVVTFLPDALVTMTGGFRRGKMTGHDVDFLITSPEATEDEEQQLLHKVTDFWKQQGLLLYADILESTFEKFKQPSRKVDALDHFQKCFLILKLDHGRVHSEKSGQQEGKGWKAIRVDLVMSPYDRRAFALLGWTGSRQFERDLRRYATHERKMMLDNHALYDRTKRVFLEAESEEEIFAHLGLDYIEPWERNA

primer with 3'-terminal hydroxymethyl-scarred dT
activity (% extension in 1 s) [1]: 35

ssDNA primer
activity [2]: > 95 % extension

Source: patent US20260132223
